According to paper PMC8280789:

Assays:
Assay in all cases: ELISA; dose-response: host component coated (1 μg/well); rLIC13086 at rising concentrations (0–5 μM in the methods; 0–0.5 μM or 0–5 μM in the legends), 2 h at 37°C; detected with HRP-conjugated anti-His mAb; KD from a non-linear fit of the specific binding equation (GraphPad Prism)
[1] = target: C4BP (human)
[2] = target: C4b (human)
[3] = target: C5b6 (human) (UniProt P13671)
[4] = target: C7 (human) (UniProt P10643)
[5] = target: C8 (human)
[6] = target: C9 (human) (UniProt P02748)
Chain of UniProt P02748 (P02748 22-559): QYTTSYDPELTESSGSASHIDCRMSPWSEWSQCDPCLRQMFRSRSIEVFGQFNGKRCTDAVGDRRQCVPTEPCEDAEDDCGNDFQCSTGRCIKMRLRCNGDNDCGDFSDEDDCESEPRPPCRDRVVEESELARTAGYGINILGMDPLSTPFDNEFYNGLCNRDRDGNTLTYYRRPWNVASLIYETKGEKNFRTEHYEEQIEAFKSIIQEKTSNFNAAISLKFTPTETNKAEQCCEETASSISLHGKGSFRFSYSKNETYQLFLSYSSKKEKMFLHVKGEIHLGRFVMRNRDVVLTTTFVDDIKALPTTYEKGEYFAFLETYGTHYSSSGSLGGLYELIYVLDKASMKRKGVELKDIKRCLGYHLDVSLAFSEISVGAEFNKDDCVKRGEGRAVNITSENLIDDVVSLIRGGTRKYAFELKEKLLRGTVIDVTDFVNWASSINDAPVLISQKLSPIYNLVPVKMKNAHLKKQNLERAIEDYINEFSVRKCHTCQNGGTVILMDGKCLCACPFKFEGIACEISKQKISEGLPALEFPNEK

[7] = target: fibrinogen (human)
[8] = target: laminin (human)
[9] = target: plasma fibronectin (human)
Chain of plasma fibronectin (human) (P02751 other isoform, or with tags, fused parts or gaps, chain 1 of 2): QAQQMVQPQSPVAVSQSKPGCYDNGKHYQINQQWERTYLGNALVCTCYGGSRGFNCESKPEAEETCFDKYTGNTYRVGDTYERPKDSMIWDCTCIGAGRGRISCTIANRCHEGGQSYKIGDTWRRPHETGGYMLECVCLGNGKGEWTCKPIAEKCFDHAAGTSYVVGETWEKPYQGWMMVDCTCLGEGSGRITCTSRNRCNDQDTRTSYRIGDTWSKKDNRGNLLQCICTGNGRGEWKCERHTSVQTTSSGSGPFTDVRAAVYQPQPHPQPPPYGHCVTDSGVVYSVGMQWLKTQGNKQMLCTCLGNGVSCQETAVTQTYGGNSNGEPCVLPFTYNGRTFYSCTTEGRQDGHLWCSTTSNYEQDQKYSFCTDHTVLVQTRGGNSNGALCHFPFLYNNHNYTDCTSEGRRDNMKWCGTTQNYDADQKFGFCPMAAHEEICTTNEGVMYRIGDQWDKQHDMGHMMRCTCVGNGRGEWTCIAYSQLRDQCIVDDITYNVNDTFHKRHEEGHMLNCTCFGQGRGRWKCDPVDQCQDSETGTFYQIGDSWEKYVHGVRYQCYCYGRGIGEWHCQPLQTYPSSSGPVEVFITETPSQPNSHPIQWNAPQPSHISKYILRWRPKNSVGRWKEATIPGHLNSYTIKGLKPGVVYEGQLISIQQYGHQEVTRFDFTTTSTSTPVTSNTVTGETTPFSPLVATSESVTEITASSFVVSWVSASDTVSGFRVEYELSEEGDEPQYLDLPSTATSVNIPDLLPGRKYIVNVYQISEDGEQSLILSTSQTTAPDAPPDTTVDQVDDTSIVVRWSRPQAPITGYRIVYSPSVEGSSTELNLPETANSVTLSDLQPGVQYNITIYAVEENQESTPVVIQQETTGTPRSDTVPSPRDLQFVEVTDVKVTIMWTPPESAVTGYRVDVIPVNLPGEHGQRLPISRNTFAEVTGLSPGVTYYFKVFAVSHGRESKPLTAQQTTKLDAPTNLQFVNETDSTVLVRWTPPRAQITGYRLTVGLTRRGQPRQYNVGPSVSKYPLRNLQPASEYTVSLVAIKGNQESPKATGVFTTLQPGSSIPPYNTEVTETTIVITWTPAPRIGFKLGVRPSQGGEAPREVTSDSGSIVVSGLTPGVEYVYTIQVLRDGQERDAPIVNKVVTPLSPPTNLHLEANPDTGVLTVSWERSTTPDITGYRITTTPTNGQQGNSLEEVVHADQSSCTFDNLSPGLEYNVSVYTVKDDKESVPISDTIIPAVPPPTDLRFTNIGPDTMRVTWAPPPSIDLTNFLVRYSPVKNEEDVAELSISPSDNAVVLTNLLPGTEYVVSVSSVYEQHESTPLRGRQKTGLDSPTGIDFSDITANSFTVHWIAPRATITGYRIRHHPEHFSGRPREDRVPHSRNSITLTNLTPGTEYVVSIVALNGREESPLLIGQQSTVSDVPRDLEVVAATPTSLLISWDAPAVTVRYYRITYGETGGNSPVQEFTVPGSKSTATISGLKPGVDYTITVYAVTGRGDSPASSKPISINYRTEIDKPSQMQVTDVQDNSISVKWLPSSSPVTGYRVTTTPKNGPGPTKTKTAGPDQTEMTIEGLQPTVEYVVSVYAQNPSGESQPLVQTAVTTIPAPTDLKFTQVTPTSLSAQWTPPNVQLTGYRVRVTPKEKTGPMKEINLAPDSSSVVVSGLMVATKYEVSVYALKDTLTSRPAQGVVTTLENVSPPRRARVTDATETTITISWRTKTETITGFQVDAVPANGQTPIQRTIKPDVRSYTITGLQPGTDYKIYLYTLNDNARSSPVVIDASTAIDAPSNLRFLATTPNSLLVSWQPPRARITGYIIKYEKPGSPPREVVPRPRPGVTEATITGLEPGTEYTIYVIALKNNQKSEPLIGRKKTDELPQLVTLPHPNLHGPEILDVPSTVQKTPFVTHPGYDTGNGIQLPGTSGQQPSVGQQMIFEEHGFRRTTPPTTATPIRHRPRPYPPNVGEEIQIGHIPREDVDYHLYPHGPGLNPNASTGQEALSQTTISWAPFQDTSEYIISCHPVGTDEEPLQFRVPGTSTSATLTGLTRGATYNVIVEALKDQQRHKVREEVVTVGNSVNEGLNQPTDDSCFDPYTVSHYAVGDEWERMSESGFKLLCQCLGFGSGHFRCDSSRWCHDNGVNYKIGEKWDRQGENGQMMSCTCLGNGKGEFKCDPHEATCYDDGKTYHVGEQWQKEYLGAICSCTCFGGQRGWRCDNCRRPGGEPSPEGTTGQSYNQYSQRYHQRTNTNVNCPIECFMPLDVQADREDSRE
Chain of plasma fibronectin (human) (P02751 other isoform, or with tags, fused parts or gaps, chain 2 of 2): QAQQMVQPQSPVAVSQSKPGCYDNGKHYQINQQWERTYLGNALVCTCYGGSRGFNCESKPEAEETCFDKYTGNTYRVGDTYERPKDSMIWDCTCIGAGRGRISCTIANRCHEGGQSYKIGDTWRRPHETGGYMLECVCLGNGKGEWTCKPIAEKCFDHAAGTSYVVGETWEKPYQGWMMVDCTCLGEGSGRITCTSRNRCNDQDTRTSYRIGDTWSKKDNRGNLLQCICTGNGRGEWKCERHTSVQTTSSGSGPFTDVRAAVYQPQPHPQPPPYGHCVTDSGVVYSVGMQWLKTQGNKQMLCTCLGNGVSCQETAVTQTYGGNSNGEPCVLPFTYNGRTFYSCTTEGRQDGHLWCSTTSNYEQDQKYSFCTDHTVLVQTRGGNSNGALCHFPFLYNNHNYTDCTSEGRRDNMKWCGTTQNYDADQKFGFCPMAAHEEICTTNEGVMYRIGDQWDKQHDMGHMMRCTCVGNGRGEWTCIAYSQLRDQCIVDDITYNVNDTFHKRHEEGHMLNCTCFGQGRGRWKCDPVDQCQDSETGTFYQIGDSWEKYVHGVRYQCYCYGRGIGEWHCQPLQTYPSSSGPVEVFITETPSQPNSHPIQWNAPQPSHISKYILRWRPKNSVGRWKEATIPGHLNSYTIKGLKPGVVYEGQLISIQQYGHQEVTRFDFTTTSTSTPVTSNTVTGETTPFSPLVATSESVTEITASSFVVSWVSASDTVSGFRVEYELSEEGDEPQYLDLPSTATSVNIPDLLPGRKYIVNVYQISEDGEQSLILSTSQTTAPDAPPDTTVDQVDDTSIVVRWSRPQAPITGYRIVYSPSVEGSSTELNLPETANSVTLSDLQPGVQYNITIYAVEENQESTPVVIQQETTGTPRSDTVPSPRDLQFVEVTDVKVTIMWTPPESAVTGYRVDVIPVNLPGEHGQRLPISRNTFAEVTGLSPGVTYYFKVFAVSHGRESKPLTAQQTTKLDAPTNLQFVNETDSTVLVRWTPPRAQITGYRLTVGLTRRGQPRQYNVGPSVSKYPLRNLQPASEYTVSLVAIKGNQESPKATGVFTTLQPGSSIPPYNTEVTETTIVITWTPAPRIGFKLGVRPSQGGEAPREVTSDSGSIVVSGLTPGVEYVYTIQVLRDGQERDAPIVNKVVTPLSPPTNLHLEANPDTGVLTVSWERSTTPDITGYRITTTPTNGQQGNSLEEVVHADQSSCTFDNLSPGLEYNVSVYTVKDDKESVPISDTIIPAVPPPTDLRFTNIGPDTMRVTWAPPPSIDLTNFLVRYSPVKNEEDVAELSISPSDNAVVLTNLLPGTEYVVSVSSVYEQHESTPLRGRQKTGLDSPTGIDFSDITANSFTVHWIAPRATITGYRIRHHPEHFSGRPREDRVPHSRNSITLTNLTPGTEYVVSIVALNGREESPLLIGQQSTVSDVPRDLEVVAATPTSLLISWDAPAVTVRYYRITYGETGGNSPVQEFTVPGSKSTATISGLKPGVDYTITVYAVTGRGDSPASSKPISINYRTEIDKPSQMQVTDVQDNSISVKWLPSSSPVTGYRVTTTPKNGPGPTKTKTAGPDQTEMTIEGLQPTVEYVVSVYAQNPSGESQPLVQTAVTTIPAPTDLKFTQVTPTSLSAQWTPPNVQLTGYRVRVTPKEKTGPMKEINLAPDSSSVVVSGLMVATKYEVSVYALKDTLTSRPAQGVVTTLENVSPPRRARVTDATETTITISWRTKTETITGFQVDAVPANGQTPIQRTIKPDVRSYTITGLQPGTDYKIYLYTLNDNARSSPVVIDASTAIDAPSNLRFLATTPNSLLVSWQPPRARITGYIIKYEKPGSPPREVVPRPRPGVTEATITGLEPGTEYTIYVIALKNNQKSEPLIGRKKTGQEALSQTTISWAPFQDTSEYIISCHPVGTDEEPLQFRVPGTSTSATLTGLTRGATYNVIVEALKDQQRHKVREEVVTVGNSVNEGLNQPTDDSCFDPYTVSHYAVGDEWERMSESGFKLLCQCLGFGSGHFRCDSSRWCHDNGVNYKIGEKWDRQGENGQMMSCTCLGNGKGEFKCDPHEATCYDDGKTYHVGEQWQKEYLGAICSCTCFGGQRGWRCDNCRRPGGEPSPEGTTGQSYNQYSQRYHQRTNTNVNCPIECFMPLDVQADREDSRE

[10] = target: plasminogen (human)

recombinant protein LIC13086 (natural protein)
Kd [1]: 8.9 nM
Kd [2]: 162 nM
Kd [3]: 40.3 nM
Kd [4]: 35.8 nM
Kd [5]: 134 nM
Kd [6]: 818 nM
Kd [7]: 320 nM
Kd [8]: 18.7 nM
Kd [9]: 5.8 nM
Kd [10]: 10.1 nM
